According to US20190077860A1 (EISAI R AND D MANAGEMENT, published 2019):

Legend:
[1] = molecular target: rat EphA4 in rat hippocampal neurons (rat, UniProt D3ZZK3 20-986); assay: cell-based or functional assay
[2] = molecular target: T1, mouse EphA4 extracellular region-SEAP-His protein (mouse); assay: competition ELISA, mouse ligands
Experimental: Antibody A obtained in Example 1 was evaluated for its inhibitory activity against the binding between mouse EphA4 and its mouse ligand according to the following steps. Each well of a 96-well plate (Nunc) was coated with an anti-alkaline phosphatase antibody (Thermo Fisher Scientific). After incubation overnight at 4° C., each well was blocked with 1% BlockAce (DS Pharma Biomedical) at room temperature for 1 hour. After washing with 0.05% Tween 20/PBS (Thermo Fisher Scientific) three times, the mouse EphA4 extracellular region-SEAP-His protein obtained by the method of Example 1 was added (final concentration: 10 nM) to each well and incubated at room temperature for 1 hour. After washing three times, ligands and serially diluted antibody A (0, 0.001, 0.003, 0.01, 0.03, 0.1, 0.3, 1,3, 10, 30, 100, 300, and 1000 nM) or a known EphA4 inhibitor KYL peptide ([…], 0, 0.003, 0.01, 0.03, 0.1, 0.3, 1, 3, 10, 30, and 100 μM, its synthesis was outsourced to Hokkaido System Science) or compound 1 (0, 0.03, 0.1, 0.3, 1,3, 10, 30, 100, 300, and 1000 μM, Formula 1, Matrix Scientific) were added to each well. The ligands used were mouse Ephrin A1-Fc chimera (R&D Systems, final concentration: 20 nM) and mouse Ephrin B2-Fc chimera (R&D Systems, final concentration: 0.6 nM). […] The absorbance at 450 nm was read using a microplate reader (Molecular Devices).

[3] = molecular target: T2, human EphA4 extracellular region-SEAP-His protein (human, UniProt P54764 20-547); assay: competition ELISA, competitor human Ephrin B3-Fc
T2 construct: also called hEphA4-SEAP-His
Experimental: Antibody A obtained in Example 1 was evaluated for its inhibitory activity against the binding between human EphA4 and its human ligand according to the following steps. Each well of a 96-well plate (Nunc) was coated with an anti-alkaline phosphatase antibody (Thermo Fisher Scientific). After incubation overnight at 4° C., each well was blocked with 1% BlockAce (DS Pharma Biomedical) at room temperature for 1 hour. After washing with 0.05% Tween 20/PBS (Thermo Fisher Scientific) three times, the human EphA4 extracellular region-SEAP-His protein obtained by the method of Example 1 was added (final concentration: 10 nM) to each well and incubated at room temperature for 1 hour. After washing three times, ligands and serially diluted antibody A (0, 0.003, 0.01, 0.03, 0.1, 0.3, 1, 3, 10, 30, 100, 300, 1000, and 3000 nM) or an EphA4 inhibitor KYL peptide ([…], 0, 0.003, 0.01, 0.03, 0.1, 0.3, 1, 3, 10, 30, 100, 300, 1000, and 3000 μM, its synthesis was outsourced to Toray Research Center) were added to each well. The ligands used were biotinylated human Ephrin A5-Fc chimera (R&D Systems, final concentration: 0.7 nM) and biotinylated human Ephrin B3-Fc chimera (R&D Systems, final concentration: 2.3 nM). […] The absorbance at 450 nm was read using a microplate reader (Molecular Devices or PerkinElmer). […]

[4] = molecular target: T1, mouse EphA4 extracellular …; assay: SPR (Biacore A100), antibody A captured on a rat anti-mouse IgG1 CM5 chip, mouse EphA4 extracellular region-SEAP-His as analyte at 0.8-50 nM, 1:1 fit
Experimental: The binding affinity of antibody A obtained in Example 1 for mouse and human EphA4 was determined by surface plasmon resonance (SPR) using Biacore A100 (GE Healthcare). First, a rat anti-mouse IgG₁ antibody produced with a conventional procedure by immunizing rat with a mouse IgG₁ antibody was immobilized on sensor chip CM5. The immobilization of the rat anti-mouse IgG1 antibody on sensor chip CM5 was performed by the amine coupling method using N-hydroxysuccinimide (NHS) and N-ethyl-N′-(3-dimethylaminopropyl)carbodiimide hydrochloride (EDC). Ethanolamine was used in blocking (the sensor chip and the reagents for immobilization were all manufactured by GE Healthcare). The antibody was diluted with a buffer solution for immobilization (10 mM sodium acetate, pH 4.5) into 1 to 2 μg/mL and immobilized on the sensor chip according to the protocol attached to Biacore A100. Antibody A was diluted with a running buffer solution HBS-EP (GE Healthcare, BR-1001-88), injected onto a flow cell for 120 seconds, and captured (amount of the antibody captured: approximately 70 to 100 RU). Subsequently, mouse or human EphA4 extracellular region-SEAP-His serially diluted in the range of 50, 25, 12.5, 6.3, 3.1, 1.6, 0.8, and 0 nM using HBS-EP was added to the sensor chip for 120 seconds. […]

T1 sequence (chain, as listed by the source limits assumed): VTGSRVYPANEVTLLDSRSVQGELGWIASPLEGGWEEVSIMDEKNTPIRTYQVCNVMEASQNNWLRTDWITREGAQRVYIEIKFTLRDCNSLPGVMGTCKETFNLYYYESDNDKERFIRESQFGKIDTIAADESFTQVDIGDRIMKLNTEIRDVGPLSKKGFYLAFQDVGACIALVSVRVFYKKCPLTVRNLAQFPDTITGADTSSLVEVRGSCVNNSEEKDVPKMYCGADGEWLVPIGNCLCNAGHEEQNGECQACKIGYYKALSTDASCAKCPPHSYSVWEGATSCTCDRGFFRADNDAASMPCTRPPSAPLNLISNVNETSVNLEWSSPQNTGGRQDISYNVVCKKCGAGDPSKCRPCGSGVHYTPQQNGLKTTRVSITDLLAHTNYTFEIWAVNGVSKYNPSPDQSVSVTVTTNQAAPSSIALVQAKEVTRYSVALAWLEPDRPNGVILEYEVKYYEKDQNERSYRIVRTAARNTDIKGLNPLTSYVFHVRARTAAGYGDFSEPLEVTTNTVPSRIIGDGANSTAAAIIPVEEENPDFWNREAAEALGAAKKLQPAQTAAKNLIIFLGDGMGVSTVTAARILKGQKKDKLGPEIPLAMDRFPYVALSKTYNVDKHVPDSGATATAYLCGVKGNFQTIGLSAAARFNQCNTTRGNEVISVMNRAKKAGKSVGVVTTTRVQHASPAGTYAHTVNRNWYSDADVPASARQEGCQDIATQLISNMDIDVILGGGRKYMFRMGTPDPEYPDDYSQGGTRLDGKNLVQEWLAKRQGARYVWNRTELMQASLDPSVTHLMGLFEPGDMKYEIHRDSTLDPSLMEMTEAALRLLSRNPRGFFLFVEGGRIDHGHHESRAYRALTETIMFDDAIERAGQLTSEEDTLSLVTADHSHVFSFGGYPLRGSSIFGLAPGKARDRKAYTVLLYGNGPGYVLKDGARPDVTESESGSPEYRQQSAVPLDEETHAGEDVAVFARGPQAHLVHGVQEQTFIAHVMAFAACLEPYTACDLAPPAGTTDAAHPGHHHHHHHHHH
T2 sequence (P54764 20-547): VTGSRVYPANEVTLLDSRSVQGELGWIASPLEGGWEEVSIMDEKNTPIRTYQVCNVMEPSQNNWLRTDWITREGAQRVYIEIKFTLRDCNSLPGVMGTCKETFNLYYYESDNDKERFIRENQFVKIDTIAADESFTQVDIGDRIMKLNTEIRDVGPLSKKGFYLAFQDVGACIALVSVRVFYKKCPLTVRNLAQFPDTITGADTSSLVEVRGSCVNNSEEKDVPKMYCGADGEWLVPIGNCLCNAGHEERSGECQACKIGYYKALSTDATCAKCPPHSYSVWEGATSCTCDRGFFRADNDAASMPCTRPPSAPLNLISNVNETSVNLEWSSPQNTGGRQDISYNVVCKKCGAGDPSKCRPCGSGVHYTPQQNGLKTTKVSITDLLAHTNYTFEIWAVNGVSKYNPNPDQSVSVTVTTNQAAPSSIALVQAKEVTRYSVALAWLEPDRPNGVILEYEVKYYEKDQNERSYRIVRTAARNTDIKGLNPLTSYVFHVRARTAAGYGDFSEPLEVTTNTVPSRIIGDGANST

B1: antibody A (antibody, mouse IgG1, kappa, V domains shown)
VH: QIQLVQSGPELKKPGETVKISCKASGYTFTDYSMHWVKQAPGKGLKWMGWINTETGEPTYADDFKGRFAFSLETSASTAYLQINNLKNEDTATYFCARIPLYYYGSRYWYFDVWGAGTTVTVSS
VL: DIQMTQSPASLSVSVGETVTITCRASENIYRNLAWYQQKQGKSPQLLVYAATNLADGVPSRFSGSGSGTQYSLKINSLQSEDFGSYYCQHFWGTPWTFGGGTKLEIKR
notes: mouse IgG1 heavy chain, kappa light chain; purified from hybridoma supernatant; also called anti-EphA4 monoclonal antibody; antibody A-IgG
IC50 of suppression of EphA4 autophosphorylation induced by mouse EphrinA1 in the hippocampal neurons [1]: 24.2 nM | fold activity against KYL peptide [2]: ≥ 1000 fold | IC50 [3]: ~1.9 nM | koff [4]: 0.000144 s⁻¹ | kon [4]: 218000 M⁻¹ s⁻¹
